What was measured:
[1] = system: MC26 mouse colon tumor; conditions: treated animals; 25 days in the control animals; cited from earlier work
[2] = molecular target: T1, gastrin-receptor expressed by AR42J cells (Rattus norvegicus, UniProt P30553); assay: Immunofluorescence binding of antibodies to AR42J cells; conditions: peptide inhibitor 1.0 mg/ml; antibody 100 μg/ml
T1 construct: host or cells: AR42J rat pancreatic adenocarcinoma cells
T1 sequence (P30553 1-452): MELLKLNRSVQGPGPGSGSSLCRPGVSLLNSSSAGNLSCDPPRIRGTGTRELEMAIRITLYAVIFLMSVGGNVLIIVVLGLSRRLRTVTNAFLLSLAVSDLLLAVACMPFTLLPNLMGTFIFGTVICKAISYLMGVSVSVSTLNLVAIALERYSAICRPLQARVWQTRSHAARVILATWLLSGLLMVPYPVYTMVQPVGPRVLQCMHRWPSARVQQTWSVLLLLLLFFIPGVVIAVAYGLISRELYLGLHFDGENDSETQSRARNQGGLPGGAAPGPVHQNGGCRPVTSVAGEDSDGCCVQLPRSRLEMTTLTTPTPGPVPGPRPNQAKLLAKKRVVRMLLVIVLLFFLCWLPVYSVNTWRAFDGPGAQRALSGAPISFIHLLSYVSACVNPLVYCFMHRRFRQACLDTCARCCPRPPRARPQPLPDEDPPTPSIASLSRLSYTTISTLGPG
Description: Binding of the GRP1-Ser specific antibodies to AR42J cells was assessed by immunofluorescence. AR42J cells were grown as in the previous Examples and harvested with cell scrapers from 175 cm^2 T-flasks and washed twice with buffer (PBS with 0.02% NaN3) by centrinugation (400×g for 7 min). The cells were kept at 0-4° C. for all manipulations. A single cell suspension was prepared in buffer, and the cell concentration was adjusted to 10^6 cells/ml. The cell suspension was added to 1.5 ml microfuge tubes (1 ml/tube). The cells were pelleted by centrifugation and supernatants were aspirated. The cells were resuspended in buffer (0.1 ml/tube) containing peptide inhibitors (1.0 mg/ml). The inhibitors included GRP1-Ser, GnRH, hG17(9)-Ser and buffer (no inhibitor). Antibodies, including the rabbit anti-GRP1-Ser (100 μg/ml), affinity purified rabbit anti-DT (negative control, 100 μg/ml), mouse anti-AR42J antiserum (positive control, 1:100 dilution, heat inactivated) or normal mouse serum were added to the appropriate tubes and the contents were mixed. The cells were incubated for 1 hour, with occasional mixing. […] Fluorescence was scored on a scale of 0 to 4, with 0 representing background fluorescence (obtained with the normal mouse serum) and 4 representing maximal fluorescence (obtained with the mouse anti-AR42J positive control antiserum).

[3] = molecular target: T2, CCK-B/gastrin-receptor on AR42J cells (Rattus norvegicus, UniProt P30553); assay: Radioligand (125I-hG17) binding inhibition on AR42J cells
T2 construct: host or cells: AR42J rat pancreatic adenocarcinoma cells
T2 sequence (P30553 1-452): T1 sequence (P30553 1-452)
Description: AR42J tumor cells (European Collection of Animal Cell cultures, Porton Down, UK) are derived from a rat pancreatic adenocarcinoma and are known to have well characterized CCK-B/gastrin-receptors. Thus AR42J were tested to confirm the expression of CCK-B/gastrin-receptor and specificity of the receptor for hH17 by radioligand inhibition. AR42J cells were cultured at 37° C. with 7% CO2 in complete RPMI 1640 (Sigma) supplemented with 10% FCS (Gemini Bioproducts), 2 mM glutamine (JRH Biosciences), 1 mM sodium pyruvate (JRH B.) and 50 μg/ml gentamicin (Gemini Bioproducts). The cells were harvested from 175 cm^2 T-flasks (Falcon Plastics) with PBS containing 0.25% EDTA, then washed twice with PBS (no EDTA) by centrifugation (400×g for 10 min). The cells were kept at 0-4° C. for all manipulations. A single cell suspension was prepared in buffer, and the cell concentration was adjusted to 10^6 cells/ml. Aliquots of 1 ml of cell suspension were added to 12×75 mm culture tubes, then the cells were centrifuged and the supernatants discarded. The cells were resuspended in PBS (0.1 ml/tube) containing human G17 (hG17), gonadotropin releasing hormone (GnRH), or no peptide. The peptide concentrations were 1.0 ng/ml, 100 ng/ml and 10 μg/ml. An aliquot of 0.1 ml of ^125I-hG17 (NEN), containing approximately 26,300 CPM (specific activity, 2200 Ci/mmol), was added to each tube. The tubes were vortexed, then incubated for 15 minutes. The cells were washed twice with PBS, then counted in a γ counter (Wallac). Samples were run in duplicate. Background counts were subtracted, then the % inhibition of ^125I-hG17 binding by each inhibitor was calculated using the equation: % Inhibition=(100)(1−((CPMuninhibited−CPMinhibited)/CPMuninhibited).

[4] = system: affinity purified anti-GRP1 Ab binding to GRP1-Ser-BSA; assay: Inhibition ELISA, specificity of affinity purified anti-GRP1 antibodies; set-up: species or system rabbit; conditions: anti-GRP1 Ab 10 ng/ml; inhibitor 1:10 dilution series
Description: The following experiments were performed to establish the specificity of antibodies raised in rabbits against the GRP1-DT peptide containing Ser spacer described Example 1 using Method B. A series of tests were conducted to assess the specificity of rabbit antibodies induced by immunization with the GRP1-DT and affinity purified by immunoadsorption over a GRP1-Ser Sepharose column.
An inhibition ELISA was used to assess the specificity of the affinity purified antibodies for GRP1-Ser peptide. The assays were run as follows: GRP1-Ser-BSA conjugate was coated onto 96 well plates (Immulon U bottom) by overnight incubation of 50 μl of a 2 μg/ml solution of conjugate in glycine buffer (0.1M, pH=9.5) at 4° C. Affinity purified anti-GRP1 Ab (at a final concentration of 10 ng/ml) was combined with various inhibitors (in 1:10 dilution series) and incubated for 1 hour at room temperature. The inhibitors included GRP1-Ser, GRP1 EPT, Ser, human gastrin 17(1-9)-Ser spacer (hG17(9)-Ser), GRP1 EPT+Ser, and buffer (no inhibitor). Incubation buffer consisted of PBS+0.5% BSA+0.05% Tween 20+0.02% NaN3. Subsequent steps used the same buffer without BSA. The 96 well plates were washed free of nonbound GRP1-Ser-BSA, and the Ab+inhibitor mixtures were added (50 μl/well). After 1 hour, the plates were washed and a goat anti-rabbit Ig (H+L) alkaline phosphatase conjugate (Zymed) was added (1:2000 dilution). […] Following a 60 minute incubation, absorbance was measured on a MRX reader (Dynatech Laboratories). Samples were run in duplicate, and means were calculated for each concentration. Background binding (established with affinity purified rabbit anti-GnRH antibodies) was subtracted from all values, and the % Inhibition relative to no inhibitor added (anti-GRP1 Ab+buffer) was calculated for each inhibitor tested: % Inhibition=(100)(1−((Auninhibited−Ainhibited)/Auninhibited), where A=Absorbance. The results are shown in FIG. 4.

**Q.** For CCCN(CCC)C(=O)C(CCC(=O)O)NC(=O)c1ccccc1 (stereo not drawn) [proglumide], which “survival of xenograft mice bearing MC26” value [1] is on record?
**A.** Its value is 39 days.

**Q.** Which “inhibition of anti-GRP1-Ser antibody binding to AR42J cells” value [2] does the source give for GnRH: gonadotropin releasing hormone here?
**A.** Its value is “failed to inhibit”.

**Q.** And the “inhibition of 125I-hG17 binding to AR42J cells” value (“inhibition of 125I-hG17 binding” for short) ([3]; 100 pg, considered to be nonspecific)?
**A.** Its value is 6%.

**Q.** What about the “inhibition of 125I-hG17 binding” value ([3]; two highest concentrations tested) of the same molecule?
**A.** Its value is “no inhibition”.

**Q.** For KLNRSVQGTGPGPGASL [GRP1 EPT], which “inhibition of antibody binding to GRP1-Ser-BSA” value [4] is on record?
**A.** Its value is “Approximately 60%”.

**Q.** With SSPPPPC [Ser spacer] as the molecule, how does the “inhibition of antibody binding to GRP1-Ser-BSA” value [4] read?
**A.** Its value is “No inhibition”.

**Q.** What does the source list for “hG17(9)-Ser: amino-terminal nine residues of hG17 followed by the Ser spacer (QGPWLEEEESSPPPPPC)”?
**A.** inhibition of anti-GRP1-Ser antibody binding to AR42J cells [2]: failed to inhibit; inhibition of antibody binding to GRP1-Ser-BSA [4]: No inhibition

**Q.** For hG17: human G17, heptadecagastrin, which “inhibition of 125I-hG17 binding” value ([3]; 1 μg per tube, highest concentration tested) is on record?
**A.** The value was 32%.

Reference: US6548066B1, “Immunogenic compositions to the CCK-B/gastrin receptor and methods for the treatment of tumors” (Aphton Corporation, priority 1997, dated 2003)
